From patent US20160090637A1 (published 2016)

Target: T1, IL-10R1 S138G homozygous mutant on primary B-CLL cells (human, UniProt Q13651 22-578)
T1 construct: Endogenous receptor on purified B-CLL cells of patients homozygous (GG) for the mutation; also called S159G of the IL-10R1 precursor; GG homozygous mutant
T1 sequence: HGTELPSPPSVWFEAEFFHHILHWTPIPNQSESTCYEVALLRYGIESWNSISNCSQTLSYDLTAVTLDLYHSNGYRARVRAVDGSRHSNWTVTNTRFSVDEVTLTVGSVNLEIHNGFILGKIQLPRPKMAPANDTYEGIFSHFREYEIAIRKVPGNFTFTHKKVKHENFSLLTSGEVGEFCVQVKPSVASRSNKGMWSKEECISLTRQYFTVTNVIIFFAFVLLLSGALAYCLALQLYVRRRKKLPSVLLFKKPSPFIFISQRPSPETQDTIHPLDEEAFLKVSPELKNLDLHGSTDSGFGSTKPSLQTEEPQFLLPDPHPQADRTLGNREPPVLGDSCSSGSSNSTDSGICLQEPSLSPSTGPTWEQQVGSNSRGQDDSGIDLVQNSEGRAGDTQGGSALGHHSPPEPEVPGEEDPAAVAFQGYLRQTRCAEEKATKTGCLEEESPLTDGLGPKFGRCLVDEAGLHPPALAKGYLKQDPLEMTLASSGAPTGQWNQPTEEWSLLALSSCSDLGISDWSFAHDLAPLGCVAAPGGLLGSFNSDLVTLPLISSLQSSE
Test: flow cytometry, biotinylated IL-10 plus avidin-FITC on primary B-CLL cells; weaker than on wild-type cells
Experimental: IL-10 binding with B-CLL cells was determined using Flurokine® Biotinylated Human Interleukin 10 Kit (R&D Systems) per the protocol. 25 μl (1×10⁵) purified B-CLL cells were incubated with 10 μl biotinylated negative control reagents or biotinylated IL-10 for 1-hour at 2-8° C., then incubated with 10 μl of avidin-FITC for a further 30 minutes at 2-8° C. in the dark. Wash the cells twice with 2 ml of 1×RDF buffer 2 times. Add 200 μl 1×RDF buffer into each tube and do flow cytometry analysis.

binding result: binds
B1: Biotinylated Human Interleukin 10 (Flurokine kit, R&D Systems) (ligand, UniProt P22301 19-178, looked up)
chain: SPGQGTQSENSCTHFPGNLPNMLRDLRDAFSRVKTFFQMKDQLDNLLLKESLLEDFKGYLGCQALSEMIQFYLEEVMPQAENQDPDIKAHVNSLGENLKTLRLRLRRCHRFLPCENKSKAVEQVKNAFNKLQEKGIYKAMSEFDIFINYIEAYMTMKIRN
modifications: biotinylated (sites not given) in the binding assay; unlabelled rh-IL-10 in the culture assays
notes: The STAT assays used rh-IL-10 (R&D Systems) at 10 ng/ml; also called IL-10; rh-IL-10
